Paper PMC10157173

Legend:
[1] = biological target: Tag-free recombinant human EGFR (Homo sapiens (Human).) (UniProt P00533); assay: ELISA; sandwich ELISA for bispecificity: tag-free EGFR, HER2 or HER3 coated at 1000 ng/ml in PBS; dilutions of BiXAb™ in PBS, 37°C, 1 h; then 1000 ng/ml of the His-tagged second receptor, 37°C, 1 h; detected with peroxidase-conjugated anti-His tag antibody
[2] = biological target: Tag-free recombinant human HER3 ECD (Homo sapiens (Human).) (UniProt P21860); assay: as above

BiXAb™ 3Patri-1Matu-Fc (bispecific antibody)
EC50 [1]: 170 nM | EC50 [2]: 0.55 nM
